According to patent US4016042A, “Substrate for the quantitative determination of enzymes” (Pentapharm A.G., priority 1974, dated 1977):

Test system: N=C(N)NCCC[C@H](NC(=O)[C@H](Cc1ccccc1)NC(=O)[C@@H]1CCCN1C(=O)c1ccccc1)C(=O)Nc1ccc([N+](=O)[O-])cc1
Test: Km and vmax determination with substrate (Lineweaver-Burk), plasma kallikrein
Assay type: biochemical
Conditions: other: plasma kallikrein; substrate concentration varied, enzyme constant; measured at 405 nm
Experimental: As is evident from equation (2) constants Km and k3 determine the activity of the enzyme substrate for a given enzyme. For determining these constants the following procedure is followed:
The enzyme and the substrate are mixed in a buffer solution, and the reaction is followed spectrophotometrically for 2 to 30 minutes. The concentration of substrate [S] is varied, whereas the enzyme concentration [E] is kept constant. If the extinction (OD) (= optical density) is plotted in a co-ordinate system as a function of time, a curve is obtained the tangent of which (difference in extinction per minute, Δ OD/minute, from which the quantity in μmoles of pNA/min (v) can be calculated) at time zero corresponds to the ideal course of the hydrolysis. By means of this tangent the initial rate of the hydrolysis can be determined.
If 1/v is plotted against 1/[S], a Lineweaver-Burk diagram (cf. "Kurzes Lehrbuch der Biochemie" by P. KARSON, Georg Thieme-Verlag, Stuttgart, 1967, p. 70) is obtained from which vmax and Km can be determined graphically.
Km and k3 = vmax /E were determined with N^α-Bz-Pro-Phe-Arg-pNA^. HCl (i.e. the substrate prepared according to Example 1) for plasma kallikrein, trypsin, plasmin and thrombin.

Chain of plasma kallikrein (Homo sapiens) (chain, as listed by the source): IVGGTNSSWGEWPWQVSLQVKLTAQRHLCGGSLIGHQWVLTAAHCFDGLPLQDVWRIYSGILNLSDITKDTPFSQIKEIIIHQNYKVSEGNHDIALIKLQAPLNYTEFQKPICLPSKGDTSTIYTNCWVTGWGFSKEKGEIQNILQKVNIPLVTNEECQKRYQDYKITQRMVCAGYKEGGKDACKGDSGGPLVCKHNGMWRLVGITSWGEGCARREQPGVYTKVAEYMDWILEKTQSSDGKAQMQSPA

plasma kallikrein (Homo sapiens) was tested, and the Km was 282 µM.
